Substitutions are numbered along the chain they refer to. Numbers in names are those of the source.

The values that follow come from article PMC11097083 (Molecular & Cellular Proteomics : MCP, 2024).

Data set [1] concerns the target galectin-4 C-terminal carbohydrate recognition domain (Gal-4C) (human). Description: AUC.
Data set [2] has the same target. Nature of the data set: cross-linking.
The data set “cross-linking” concerns the molecule itself. Description: cross-linking.

As usually defined, the stoichiometry N is the number of molecules, sites or subunits per partner or assembly. Turning to “galectin-4 C-terminal carbohydrate recognition domain (Gal-4C) (domain or fragment)”, the stoichiometry N in data set [1] and in data set [2] was 2 in each case.

B1: galectin-4 (Gal-4), full-length (natural protein, human, UniProt P56470 1-323, looked up)
chain: MAYVPAPGYQPTYNPTLPYYQPIPGGLNVGMSVYIQGVASEHMKRFFVNFVVGQDPGSDVAFHFNPRFDGWDKVVFNTLQGGKWGSEERKRSMPFKKGAAFELVFIVLAEHYKVVVNGNPFYEYGHRLPLQMVTHLQVDGDLQLQSINFIGGQPLRPQGPPMMPPYPGPGHCHQQLNSLPTMEGPPTFNPPVPYFGRLQGGLTARRTIIIKGYVPPTGKSFAINFKVGSSGDIALHINPRMGNGTVVRNSLLNGSWGSEEKKITHNPFGPGQFFDLSIRCGLDRFKVYANGQHLFDFAHRLSAFQRVDTLEIQGDVTLSYVQI
Regarding B1, the “stoichiometry N” value in the data set “cross-linking” turned out to be 2.

B2: Gal-4CM (R240H), C-terminal domain mutant of full-length Gal-4 (natural protein, human, UniProt P56470 1-323, looked up)
chain: B1 chain with R240H
On to B2, for which, in the data set “cross-linking”, the “stoichiometry N” value was found to be 2.

B3: Gal-4NM (R67H), N-terminal domain mutant of full-length Gal-4 (natural protein, human, UniProt P56470 1-323, looked up)
chain: B1 chain with R67H
Consider B3, for which, in “cross-linking”, the “stoichiometry N” value was 2.
